Experimental data as given in patent US20090214427.

Assays:
[1] = target: T1, synthetic peptide HK2p02 (AARRPFPAPS)
T1 chain: AARRPFPAPS

[2] = target: T2, synthetic peptide HK2p01 (SRFKVWWAAG)
T2 chain: SRFKVWWAAG

[3] = target: T3, synthetic peptide HK2p03 (PARRPFPVTA)
T3 chain: PARRPFPVTA

Measured: enzyme activity (chromogenic substrate)

B1: human trypsin 3 (protein)
chain: IVGGYTCEENSLPYQVSLNSGSHFCGGSLISEQWVVSAAHCYKTRIQVRLGEHNIKVLEGNEQFINAAKIIRHPKYNRDTLDNDIMLIKLSSPAVINARVSTISLPTTPPAAGTECLISGWGNTLSFGADYPDELKCLDAPVLTQAECKASYPGKITNSMFCVGFLEGGKDSCQRDSGGPVVCNGQLQGVVSWGHGCAWKNRPGVYTKVYNYVDWIKDTIAANS
showed no inhibition: [1] | [2] | [3]

B2: human plasmin (protein)
chain: KVYLSECKTGNGKNYRGTMSKTKNGITCQKWSSTSPHRPRFSPATHPSEGLEENYCRNPDNDPQGPWCYTTDPEKRYDYCDILECEEECMHCSGENYDGKISKTMSGLECQAWDSQSPHAHGYIPSKFPNKNLKKNYCRNPDRELRPWCFTTDPNKRWELCDIPRCTTPPPSSGPTYQCLKGTGENYRGNVAVTVSGHTCQHWSAQTPHTHNRTPENFPCKNLDENYCRNPDGKRAPWCHTTNSQVRWEYCKIPSCDSSPVSTEQLAPTAPPELTPVVQDCYHGDGQSYRGTSSTTTTGKKCQSWSSMTPHRHQKTPENYPNAGLTMNYCRNPDADKGPWCFTTDPSVRWEYCNLKKCSGTEASVVAPPPVVLLPDVETPSEEDCMFGNGKGYRGKRATTVTGTPCQDWAAQEPHRHSIFTPETNPRAGLEKNYCRNPDGDVGGPWCYTTNPRKLYDYCDVPQCAAPSFDCGKPQVEPKKCPGRVVGGCVAHPHSWPWQVSLRTRFGMHFCGGTLISPEWVLTAAHCLEKSPRPSSYKVILGAHQEVNLEPHVQEIEVSRLFLEPTRKDIALLKLSSPAVITDKVIPACLPSPNYVVADRTECFITGWGETQGTFGAGLLKEAQLPVIENKVCNRYEFLNGRVQSTELCAGHLAGGTDSCQGDSGGPLVCFEKDKYILQGVTSWGLGCARPNKPGVYVRVSRFVTWIEGVMRNN
showed no inhibition: [1] | [2] | [3]

B3: human trypsin 2 (protein)
chain: IVGGYICEENSVPYQVSLNSGYHFCGGSLISEQWVVSAGHCYKSRIQVRLGEHNIEVLEGNEQFINAAKIIRHPKYNSRTLDNDILLIKLSSPAVINSRVSAISLPTAPPAAGTESLISGWGNTLSSGADYPDELQCLDAPVLSQAECEASYPGKITNNMFCVGFLEGGKDSCQGDSGGPVVSNGELQGIVSWGYGCAQKNRPGVYTKVYNYVDWIKDTIAANS
showed no inhibition: [1] | [2] | [3]
